Test results taken from patent US20240293553A1, “P-SELECTIN INHIBITORS AND USES THEREOF” (Beth Israel Deaconess Medical Center, Inc., priority 2021, published 2024).
Square brackets hold non-standard residues; d marks the D form. Ends that are not written are not given here. F∗ = phenylalanine sulfonate

Target: human P-selectin-Ig chimera (human) (UniProt P16109)
Test: SPR (Biacore): biotinylated ligand on streptavidin chip, P-selectin-Ig flowed at 0.4-100 nM

human P-selectin-Ig chimera (human), sequence (P16109 42-771, change not shown): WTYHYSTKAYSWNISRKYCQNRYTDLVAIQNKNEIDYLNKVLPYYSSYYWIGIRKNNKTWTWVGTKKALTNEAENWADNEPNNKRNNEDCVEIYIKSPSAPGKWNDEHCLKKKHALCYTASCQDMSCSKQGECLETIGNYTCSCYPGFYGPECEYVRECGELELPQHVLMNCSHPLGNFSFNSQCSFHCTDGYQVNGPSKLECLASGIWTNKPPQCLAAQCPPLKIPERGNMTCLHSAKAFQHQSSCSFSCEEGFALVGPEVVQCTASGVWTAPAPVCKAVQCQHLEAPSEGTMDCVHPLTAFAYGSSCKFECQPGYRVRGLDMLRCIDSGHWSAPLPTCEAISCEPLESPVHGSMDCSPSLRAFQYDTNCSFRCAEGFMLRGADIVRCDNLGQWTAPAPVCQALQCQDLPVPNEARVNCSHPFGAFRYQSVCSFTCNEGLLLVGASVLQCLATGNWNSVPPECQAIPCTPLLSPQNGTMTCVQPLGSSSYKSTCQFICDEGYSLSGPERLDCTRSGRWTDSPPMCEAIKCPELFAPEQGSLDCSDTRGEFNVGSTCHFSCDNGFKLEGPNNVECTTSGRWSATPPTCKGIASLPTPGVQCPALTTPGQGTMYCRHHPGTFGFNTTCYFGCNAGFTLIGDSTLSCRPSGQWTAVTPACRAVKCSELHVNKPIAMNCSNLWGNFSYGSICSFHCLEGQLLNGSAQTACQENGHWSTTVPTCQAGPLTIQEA

- Kd: 27 nM
Binder: KE[F∗]E[F∗]LD[F∗]DFLPET(Neu5Acα2‑3Galβ1‑4(Fucα1-3)GlcNAcβ1‑6(Galβ1-3)GalNAcα)EPL [GSnP-6]
